Source: publication PMC6936867

Experiments:
FcγRIIa R131 = FcγRIIa R131 (UniProt P12318); test: SPR
FcγRIIb = FcγRIIb (UniProt P31994); test: SPR
FcγRIIIa V158 = test: SPR
FcγRIIa H131 = FcγRIIa H131 (UniProt P12318); test: SPR
FcγRIIIa F158 = FcγRIIIa F158 (UniProt P08637); test: SPR
[1] = target: CAP256-VRC26.25 IgG3*17 (human); test: SPR; antibodies printed at 200 nM in 25 mM sodium acetate pH 5.0 on an NHS/EDC-activated carboxymethyldextran gold prism (CFM, MX96 array reader); FcγRs injected in PBS + 0.05% Tween 20, 8-part 3-fold dilution series generally starting between 10 and 50 μM, 5 min association, 5 min dissociation; kinetic global analysis for KD

FcγRIIa H131, sequence (P12318 34-317): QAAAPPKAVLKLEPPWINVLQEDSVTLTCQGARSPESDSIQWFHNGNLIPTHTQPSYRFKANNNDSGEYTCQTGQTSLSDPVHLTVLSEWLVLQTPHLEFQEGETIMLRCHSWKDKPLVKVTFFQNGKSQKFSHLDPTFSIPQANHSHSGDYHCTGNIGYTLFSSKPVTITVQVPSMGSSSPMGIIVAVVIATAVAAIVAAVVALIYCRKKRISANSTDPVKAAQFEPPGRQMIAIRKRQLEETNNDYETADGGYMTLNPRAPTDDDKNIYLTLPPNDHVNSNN
FcγRIIa R131, sequence (P12318 34-217 H167R): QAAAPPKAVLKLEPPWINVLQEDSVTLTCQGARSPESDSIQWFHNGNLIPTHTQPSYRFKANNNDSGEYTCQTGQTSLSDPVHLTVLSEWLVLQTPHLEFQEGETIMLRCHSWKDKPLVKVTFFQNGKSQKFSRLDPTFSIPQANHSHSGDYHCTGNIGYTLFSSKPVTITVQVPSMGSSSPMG
FcγRIIb, sequence (P31994 43-310): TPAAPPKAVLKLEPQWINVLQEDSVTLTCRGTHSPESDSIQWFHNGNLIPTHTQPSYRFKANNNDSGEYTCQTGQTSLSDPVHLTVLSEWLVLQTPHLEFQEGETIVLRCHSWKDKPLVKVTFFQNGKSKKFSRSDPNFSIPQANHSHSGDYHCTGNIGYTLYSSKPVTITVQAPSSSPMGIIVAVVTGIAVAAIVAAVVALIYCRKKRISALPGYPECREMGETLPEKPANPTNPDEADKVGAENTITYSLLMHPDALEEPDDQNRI
FcγRIIIa V158, sequence (P08637 17-208 F176V): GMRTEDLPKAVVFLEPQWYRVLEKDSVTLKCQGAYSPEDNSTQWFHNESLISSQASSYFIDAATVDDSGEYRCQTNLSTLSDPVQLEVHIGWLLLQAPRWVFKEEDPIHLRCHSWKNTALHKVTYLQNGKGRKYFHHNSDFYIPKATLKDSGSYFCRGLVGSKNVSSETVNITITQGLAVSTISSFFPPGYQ
FcγRIIIa F158, sequence (P08637 17-254): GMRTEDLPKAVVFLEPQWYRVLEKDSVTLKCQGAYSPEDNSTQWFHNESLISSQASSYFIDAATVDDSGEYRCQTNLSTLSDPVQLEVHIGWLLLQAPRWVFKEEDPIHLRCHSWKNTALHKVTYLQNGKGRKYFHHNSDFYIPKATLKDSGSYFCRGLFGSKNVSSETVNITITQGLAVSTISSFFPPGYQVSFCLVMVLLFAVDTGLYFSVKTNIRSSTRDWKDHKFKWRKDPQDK

Row | Substance | Kd (FcγRIIa R131) | Kd (FcγRIIb) | Kd (FcγRIIIa V158) | Kd (FcγRIIa H131) | Kd (FcγRIIIa F158) | fold less binding than other variants [1]
1 | CAP256-VRC26.25 IgG1 | 5.7 µM | 6.6 µM | 2.4 µM | 5.6 µM | 3.9 µM | 
2 | FcγRIIIa |  |  |  |  |  | 1.7 to 1.9 fold
3 | CAP256-VRC26.25 IgG3*17 | 2 µM | 4.5 µM | 4.1 µM | 1 µM | 4.9 µM | 
4 | CAP256-VRC26.25 IgG3*01 | 3.9 µM | 4.6 µM | 2.2 µM | 1 µM | 3.1 µM | 
5 | CAP256-VRC26.29 IgG3*01m (from UniProt P01860) |  |  | 2.7 µM | 1.4 µM | 3.9 µM | 
6 | CAP256-VRC26.29 IgG3*01 (from UniProt P01860) |  |  | 2.6 µM | 1.3 µM | 4.4 µM | 
7 | CAP256-VRC26.29 IgG1 (from UniProt P01857) | 5.2 µM | 5.4 µM | 3.6 µM | 5.5 µM | 4.5 µM | 
8 | CAP256-VRC26.29 IgG3*17 (from UniProt P01860) | 2.9 µM | 4.1 µM | 2.4 µM | 1.3 µM | 4.5 µM | 
